From patent US9353390B2, “Genetically engineered microbes and methods for producing 4-hydroxycoumarin” (University of Georgia Research Foundation, Inc., priority 2013, dated 2016)
Several values for one entry are separate records, joined by “and”; a condition that tells them apart may be missing. Identical values can stand only once.

Tests used:
[1] = molecular target: T1, PchA, isochorismate synthase from Pseudomonas aeruginosa PAO1 (purified, N-terminal His tag) (Pseudomonas aeruginosa, UniProt Q51508); assay type: biochemical; settings: chorismic acid, pH 7.5, 30° C., mean ± s.d., n = 2
T1 construct: coupled with PaPchB
T1 sequence (Q51508 whole entry): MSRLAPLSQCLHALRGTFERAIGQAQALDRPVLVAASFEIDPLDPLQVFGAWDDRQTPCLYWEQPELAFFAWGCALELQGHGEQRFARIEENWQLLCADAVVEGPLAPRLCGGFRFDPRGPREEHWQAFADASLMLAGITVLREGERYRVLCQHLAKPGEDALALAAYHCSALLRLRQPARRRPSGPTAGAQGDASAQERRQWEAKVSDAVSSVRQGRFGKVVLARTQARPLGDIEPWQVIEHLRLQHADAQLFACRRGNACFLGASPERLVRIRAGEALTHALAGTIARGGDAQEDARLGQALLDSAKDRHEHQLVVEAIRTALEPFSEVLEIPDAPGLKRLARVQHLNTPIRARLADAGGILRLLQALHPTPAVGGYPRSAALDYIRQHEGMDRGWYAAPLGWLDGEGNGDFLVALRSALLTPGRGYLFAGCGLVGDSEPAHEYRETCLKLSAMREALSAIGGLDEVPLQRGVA
Description: (§1) Kinetic parameters of EntC (A), MenF (B), and PchA (C). The Km and Vmax were generated with OriginPro8 through non-linear regression of the Michaelis-Menten equation. […] All data points are reported as mean±s.d. from two independent experiments (n=2). Error bars are defined as s.d.
(§2) The kinetic parameters of the ICSs: EntC, MenF, and PchA were determined using coupled assays (Payne et al. Org. Biomol. Chem. 7, 2421-2429 (2009)). […] The reactions lasted 1 min for EntC, and 5 min for MenF and PchA, respectively, and then were terminated by acidification with 20 μL of HCl (20%). […] The kinetic parameters were estimated by using OriginPro8 through non-linear regression of the Michaelis-Menten equation.

[2] = molecular target: T2, EntC, isochorismate synthase from E. coli MG1655 (purified, N-terminal His tag) (Escherichia coli, UniProt P0AEJ2); assay: ICS coupled enzyme assay, EntC (with PaPchB, salicylate accumulation by HPLC); settings: chorismic acid, pH 7.5, 30° C., 0.1 μM enzyme, mean ± s.d., n = 2
T2 sequence (P0AEJ2 1-391): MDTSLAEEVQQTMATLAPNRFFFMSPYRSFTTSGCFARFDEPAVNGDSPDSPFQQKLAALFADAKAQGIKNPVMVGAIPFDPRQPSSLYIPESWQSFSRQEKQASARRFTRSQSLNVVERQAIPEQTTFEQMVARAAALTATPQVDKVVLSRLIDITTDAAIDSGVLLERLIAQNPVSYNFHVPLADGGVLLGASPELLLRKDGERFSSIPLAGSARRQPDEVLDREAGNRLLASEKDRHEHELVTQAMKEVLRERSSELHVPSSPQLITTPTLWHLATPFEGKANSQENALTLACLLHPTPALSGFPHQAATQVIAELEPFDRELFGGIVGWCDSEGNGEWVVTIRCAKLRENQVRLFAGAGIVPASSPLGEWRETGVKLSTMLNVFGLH
Description: as §1, §2

[3] = molecular target: T3, MenF, isochorismate synthase from E. coli MG1655 (purified, N-terminal His tag) (Escherichia coli, UniProt P38051); assay: ICS coupled enzyme assay, MenF (with PaPchB, salicylate accumulation by HPLC); settings: chorismic acid, pH 7.5, 30° C., 0.1 μM enzyme, mean ± s.d., n = 2
T3 sequence (P38051 1-431): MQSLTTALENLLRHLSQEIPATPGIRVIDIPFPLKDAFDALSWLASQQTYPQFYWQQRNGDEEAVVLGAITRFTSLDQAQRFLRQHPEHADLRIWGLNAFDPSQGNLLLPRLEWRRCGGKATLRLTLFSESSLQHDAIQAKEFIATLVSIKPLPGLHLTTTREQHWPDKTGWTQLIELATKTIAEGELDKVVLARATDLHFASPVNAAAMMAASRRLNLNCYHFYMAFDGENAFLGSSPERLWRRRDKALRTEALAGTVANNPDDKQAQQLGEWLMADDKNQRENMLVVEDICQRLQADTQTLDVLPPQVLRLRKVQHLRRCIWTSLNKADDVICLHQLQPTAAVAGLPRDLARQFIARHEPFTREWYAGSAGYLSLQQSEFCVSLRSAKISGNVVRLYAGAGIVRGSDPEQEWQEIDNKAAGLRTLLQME
Description: as §1, §2

[4] = tested on: O=C(O)c1ccccc1O; assay: purified protein, by the assay type; settings: other: MdpB2, salicylate, pH 7.5, 30° C., mean ± s.d., n = 2
Description: The Km and Vmax values were estimated with OriginPro8 through non-linear regression of the Michaelis-Menten equation. […] All data points are reported as mean±s.d. from two independent experiments (n=2). Error bars are defined as s.d.
The obtained transformants were pre-inoculated in Luria-Bertani (LB) medium containing 100 μg/ml of ampicillin and grown aerobically at 37° C. overnight. Next day, the pre-inoculums were transferred into 50 ml of fresh LB medium at a volume ratio of 1:100. The cultures were left to grow at 37° C. till the OD600 values reached 0.6-0.8 and then induced with 1.0 mM IPTG. Protein expression was conducted at 30° C. for another 5 h. […] The BCA kit (Pierce Chemicals) was used to estimate protein concentrations. The SCL enzyme assays were performed according to the method described by Ishiyama et al. with modifications (Ishiyama et al. Appl. Environ. Microbiol. 70, 1297-1306 (2004)).

[5] = substrate: C=C(O[C@@H]1C=C(C(=O)O)C=C[C@H]1O)C(=O)O; assay: purified protein, by the assay type; settings: chorismic acid, pH 7.5, 30° C., mean ± s.d., n = 2
Description: as §1, §2

[6] = tested on: conversion of salicylate to 4HC; assay: In vitro complementation assay, salicylate to 4HC in crude extract of E. coli/pZE-EPBS; settings: purified enzyme supplemented into crude extract with required cofactors; crude extract alone 0.18 mg/L/h
Description: The E. coli strain carrying the plasmid pZE-EPBS was pre-inoculated into 3 ml LB liquid medium containing 100 μg/ml of ampicillin and grown at 37° C. overnight with shaking at 300 rpm. In the following day, 1 ml of the preinoculum was added to 50 ml of fresh M9Y medium. The culture was left to grow at 37° C. till the OD600 value reached around 0.6 and then induced with 0.5 mM IPTG. The expression of the pathway enzymes was conducted at 30° C. for another 5 hours. The cells were harvested and re-suspended in 2 ml of Tris-HCl buffer (100 mM, pH=7.5), and then lysed by French Press. The soluble fraction was collected by ultra-centrifugation and used as the crude enzyme extract for the complementation assay. […] After 30 min reaction, 100 μl of malonyl-CoA (2 mM) and 50 μl of crude extract with/without purified BIS3 (20 μl) were supplemented into the reaction system. The reactions were finally terminated in another 0.5-2 h by acidification.

With `C=C(O[C@@H]1C=C(C(=O)O)C=C[C@H]1O)C(=O)O` [chorismic acid] the kcat ([1]; 0.1 μM enzyme) was 0.20 S^−1 and 0.20 ± 0.01 S^−1, the Km [1] was 3.69 ± 0.53 µM and the kcat [2] was 2.12 S^−1 and 2.12 ± 0.07 S^−1. For the same molecule, the kcat [3] was 0.13 S^−1 and 0.13 ± 0.01 S^−1.

With “MdpB2, salicylate:CoA ligase from Actinomadura madurae ATCC39144 (purified, N-terminal His tag) (Actinomadura madurae)” the Km [4] was 8.53 ± 0.94 µM, the kcat [4] was 1.18 ± 0.03 s⁻¹ and the kcat/Km [4] was 138000 M⁻¹ s⁻¹.

B1: MenF, isochorismate synthase from E. coli MG1655 (purified, N-terminal His tag) (Escherichia coli K-12) (protein)
chain: MQSLTTALENLLRHLSQEIPATPGIRVIDIPFPLKDAFDALSWLASQQTYPQFYWQQRNGDEEAVVLGAITRFTSLDQAQRFLRQHPEHADLRIWGLNAFDPSQGNLLLPRLEWRRCGGKATLRLTLFSESSLQHDAIQAKEFIATLVSIKPLPGLHLTTTREQHWPDKTGWTQLIELATKTIAEGELDKVVLARATDLHFASPVNAAAMMAASRRLNLNCYHFYMAFDGENAFLGSSPERLWRRRDKALRTEALAGTVANNPDDKQAQQLGEWLMADDKNQRENMLVVEDICQRLQADTQTLDVLPPQVLRLRKVQHLRRCIWTSLNKADDVICLHQLQPTAAVAGLPRDLARQFIARHEPFTREWYAGSAGYLSLQQSEFCVSLRSAKISGNVVRLYAGAGIVRGSDPEQEWQEIDNKAAGLRTLLQME
With B1 the Km ([5]; other: MenF) was 6.75 ± 2.99 µM.

B2: BIS3: Biphenyl synthase from Sorbus aucuparia, 4HC-forming enzyme (protein, UniProt D2DRC5 1-388, looked up)
4-hydroxycoumarin synthase 2: MAPVVKNEPQHAKILAIGTANPPNVFHQKDYPDFLFRVTKNEHRTDLREKFDRICEKSRTKKRYLHLTEEMLKANPNIYTYGAPSLNVRQDICNIEVPKLGQEASLKAIKEWGQPISKITHLIFCTASCVDMPGCDFQLIKLLGLDPSVTRTMIYEAGCYAGATVLRMAKDFAENNKGARVLVVCAEITTVFFHGLTDTHLDILVGQALFADGASAVIVGANPEPEIERPLFEIVACRQTILPNSEHGVVANIREMGFNYYLSGDVPKFVGGNVVDFMTKTFEKVDGKNKDWNSLFFSVHPGGPAIVDQVEEKLGLKEGKLRATRHVLSEYGNMGAPTVHFILDEMRNKSIEEGKTTTGEGLEWGVVIGIGPGLTVETAVLRSEFITY
B2 was tested, and the “rate of conversion of salicylate to 4HC” value [6] was 7.83 mg/L/h.

B3: EntC, isochorismate synthase from E. coli MG1655 (purified, N-terminal His tag) (Escherichia coli K-12) (protein)
chain: MDTSLAEEVQQTMATLAPNRFFFMSPYRSFTTSGCFARFDEPAVNGDSPDSPFQQKLAALFADAKAQGIKNPVMVGAIPFDPRQPSSLYIPESWQSFSRQEKQASARRFTRSQSLNVVERQAIPEQTTFEQMVARAAALTATPQVDKVVLSRLIDITTDAAIDSGVLLERLIAQNPVSYNFHVPLADGGVLLGASPELLLRKDGERFSSIPLAGSARRQPDEVLDREAGNRLLASEKDRHEHELVTQAMKEVLRERSSELHVPSSPQLITTPTLWHLATPFEGKANSQENALTLACLLHPTPALSGFPHQAATQVIAELEPFDRELFGGIVGWCDSEGNGEWVVTIRCAKLRENQVRLFAGAGIVPASSPLGEWRETGVKLSTMLNVFGLH
B3 showed a Km ([5]; other: EntC) of 11.93 ± 1.37 µM.
